In data set [1] the test system is ob/ob mice, db/db mice and obese ZDF rats. The following applies: cited from earlier work.
The test system of a further data set is mouse 3T3-L1 adipocytes. The conditions noted are these: in the presence and absence of insulin; cited from earlier work.
Data set [2] concerns db/db mice. The data set can be described thus: Fed blood glucose in db/db mice (age of 6 weeks). The conditions noted are these: fed conditions, up to 4 weeks, AVE0010 0.05, FGF-21 0.75 mg/kg/day s.c. or combined. In kind it is in vivo. On the procedure: (§1) Female db/db mice (BKS.Cg-m+/+Leprdb/J, age of 6 weeks) were treated with vehicle (PBS), 0.05 mg·kg^−1·day^−1 AVE0010, 0.75 mg·kg^−1·day^−1 recombinant human FGF-21 (SEQ ID NO: 2) or a combined dose of FGF-21 (SEQ ID NO: 2) and AVE0010 (0.75+0.05 mg·kg^−1·day^−1) subcutaneously once daily. Mice were fed ad libitum. Before the first treatment, after one week and 4 weeks blood glucose and HbA1c were measured under fed conditions. After 21 days of treatment an oral glucose tolerance test (OGTT) was initiated. Fasted mice were orally challenged with 2 g·kg^−1 glucose solution and blood glucose was measured at indicated time points.

A further data set concerns diabetic rhesus monkeys. The following applies: 6 weeks; cited from earlier work.
In data set [3] the test system is db/db mice. The data set is described as follows: Oral glucose tolerance test (OGTT) in db/db mice after 21 days. In kind it is in vivo. The following applies: after 21 days of treatment, 2 g/kg oral glucose, vs vehicle treated obese control. As for the experimental part: as §1
Where [4] appears, read: ob/ob and db/db mice and 8 week old ZDF rats, dose dependent (WO03/011213).
The mark [5] stands for this setting: ob/ob, db/db mice and obese ZDF rats (Kharitonenkov et al. 2005).

Like-named read-outs stand apart in the source and are kept apart here.

B1: FGF-21: recombinant human FGF-21 (SEQ ID NO: 2): deletion of amino acids 1-28 of human FGF-21 and additional N-terminal glycine (protein)
chain: GHPIPDSSPLLQFGGQVRQRYLYTDDAQQTEAHLEIREDGTVGGAADQSPESLLQLKALKPGVIQILGVKTSRFLCQRPDGALYGSLHFDPEACSFRELLLEDGYNVYQSEAHGLPLHLPGNKSPHRDPAPRGPARFLPLPGLPPAPPEPPGILAPQPPDVGSSDPLSMVGPSQGRSPSYAS
modifications: G linked to fragment of human FGF21 from H29 to S209
As for B1, the “mitogenicity, hypoglycemia, or weight gain” value in data set [1] (any dose tested, diabetic or healthy animals) is given as “did not induce”. For the same molecule, the “food intake or body weight/composition” value in data set [1] (diabetic or lean mice and rats, 2 weeks of administration) is reported as “did not affect”. Besides, in data set [1] (setting [4]), the “fed and fasting blood glucose” value is “decrease”; the glucagon levels result is “decrease”; the triglycerides entry is reported as “decrease”. Besides, in data set [1] (setting [5]), the blood glucose entry was “significantly lowered”, the fasting insulin levels result was “decreased”, the “glucose clearance during an oral glucose tolerance test” value is on record as “improved” and the triglycerides entry was “significantly lowered”. In addition, the glucose uptake result in the data set on mouse 3T3-L1 adipocytes is on record as “stimulate”. Also, the blood glucose entry in the data set on db/db mice [2] is reported as “inhibition of blood glucose increase”. Moreover, in the data set with diabetic rhesus monkeys, the HDL-cholesterol entry is listed as “increased”, the LDL-cholesterol entry was “significantly lowered”, the body weight result is listed as “slightly but significantly decreased” and the fasting plasma glucose entry is “reduced”. For the same molecule, in the data set on diabetic rhesus monkeys, the fructosamine result is on record as “reduced”, the glucagone levels result was “reduced”, the hypoglycemia result is “not observed” and the insulin result was “reduced”. The triglyceride result in the data set on diabetic rhesus monkeys was “reduced”. In addition, the “glucose tolerance (OGTT)” value in the data set on db/db mice [3] was “small improvement”.

These data come from patent publication US20140142023A1, “Pharmaceutical Composition for Treating A Metabolic Syndrome” (SANOFI, priority 2011, published 2014).
